Here are results for 19 molecules from patent US20150037348A1 (AbbVie / Abbott, published 2015).

To fix the notation:
T1: recombinant human IL-12 (rhIL-12) (human, UniProt P29459 23-219; P29460 23-328)
T1 construct: disulfide-linked p35/p40 heterodimer (p70); also called IL-12 p70; rec. human IL12
T1 sequence (looked up) 1: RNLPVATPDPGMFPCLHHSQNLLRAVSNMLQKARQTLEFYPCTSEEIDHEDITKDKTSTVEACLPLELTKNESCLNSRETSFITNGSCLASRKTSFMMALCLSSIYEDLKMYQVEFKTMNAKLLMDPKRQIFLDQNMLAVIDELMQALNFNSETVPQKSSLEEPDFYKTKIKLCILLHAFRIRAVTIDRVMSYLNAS
T1 sequence (looked up) 2: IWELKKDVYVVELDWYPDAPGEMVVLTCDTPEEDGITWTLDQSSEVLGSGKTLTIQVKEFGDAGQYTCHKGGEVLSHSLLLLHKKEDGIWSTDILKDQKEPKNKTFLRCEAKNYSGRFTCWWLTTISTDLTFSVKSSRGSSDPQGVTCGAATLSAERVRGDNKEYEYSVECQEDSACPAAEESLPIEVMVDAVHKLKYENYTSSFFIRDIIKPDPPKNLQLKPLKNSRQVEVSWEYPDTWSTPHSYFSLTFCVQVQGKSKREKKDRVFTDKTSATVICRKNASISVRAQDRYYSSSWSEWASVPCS

T2: human IL-12 (human, UniProt P29459 23-219; P29460 23-328)
T2 construct: recombinant human IL-12 heterodimer (p35/p40, disulfide-linked); also called hIL-12; rhIL-12
T2 sequence (looked up) 1: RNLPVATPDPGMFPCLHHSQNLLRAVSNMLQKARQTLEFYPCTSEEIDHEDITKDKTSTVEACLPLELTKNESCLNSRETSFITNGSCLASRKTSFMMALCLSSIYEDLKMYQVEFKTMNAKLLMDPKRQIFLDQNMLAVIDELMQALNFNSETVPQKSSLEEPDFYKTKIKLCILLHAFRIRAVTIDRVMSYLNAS
T2 sequence (looked up) 2: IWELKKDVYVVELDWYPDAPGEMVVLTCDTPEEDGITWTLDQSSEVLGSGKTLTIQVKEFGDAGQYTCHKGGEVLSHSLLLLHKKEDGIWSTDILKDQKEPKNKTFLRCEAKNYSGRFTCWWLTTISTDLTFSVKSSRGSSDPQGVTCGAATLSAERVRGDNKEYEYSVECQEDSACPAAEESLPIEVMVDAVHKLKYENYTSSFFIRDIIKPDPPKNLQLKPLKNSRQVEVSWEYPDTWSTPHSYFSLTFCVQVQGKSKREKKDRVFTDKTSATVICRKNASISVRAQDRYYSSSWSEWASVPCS

B1: 99-G7 (scFv, V domains shown)
VH: QVQLVQSGGGVVQPGRSLRLSCAASGFTFSSYGMHWVRQAPGKGLEWVAFIRYDGSNKYYADSVKGRFTISRDNSKNTLYLQMKSLRAEDTAVYYCKTHGSHDNWGQGTMVTVSS
VL: SYVLTQPPSVSGTPGQRVTISCSGGRSNIGSNTVKWYQQLPGTAPKLLIYGNDQRPSGVPDRFSGSKSGTSASLAITGVQAEDEADYYCQSYLKSRAFSRVFGTGTKVTVL
notes: scFv clone
B2: 99-F11 (scFv, V domains shown)
VH: QVQLVQSGGGVVQPGRSLRLSCAASGFTFSSYGMHWVRQAPGKGLEWVAFIRYDGSNKYYADSVKGRFTISRDNSKNTLYLQMKSLRAEDTAVYYCKTHGSHDNWGQGTMVTVSS
VL: SYVLTQPPSVSGTPGQRVTISCSGGRSNIGSNTVKWYQQLPGTAPKLLIYGNDQRPSGVPDRFSGSKSGTSASLAITGVQAEDEADYYCQSYDSGFTGSRVFGTGTKVTVL
notes: scFv clone
B3: 99-E9 (scFv, V domains shown)
VH: QVQLVQSGGGVVQPGRSLRLSCAASGFTFSSYGMHWVRQAPGKGLEWVAFIRYDGSNKYYADSVKGRFTISRDNSKNTLYLQMKSLRAEDTAVYYCKTHGSHDNWGQGTMVTVSS
VL: SYVLTQPPSVSGTPGQRVTISCSGGRSNIGSNTVKWYQQLPGTAPKLLIYGNDQRPSGVPDRFSGSKSGTSASLAITGVQAEDEADYYCQSYDSGFTGSRVFGTGTKVTVL
notes: scFv clone
B4: 99-B11 (scFv, V domains shown)
VH: QVQLVQSGGGVVQPGRSLRLSCAASGFTFSSYGMHWVRQAPGKGLEWVAFIRYDGSNKYYADSVKGRFTISRDNSKNTLYLQMKSLRAEDTAVYYCKTHGSHDNWGQGTMVTVSS
VL: SYVLTQPPSVSGTPGQRVTISCSGGRSNIGSNTVKWYQQLPGTAPKLLIYGNDQRPSGVPDRFSGSKSGTSASLAITGVQAEDEADYYCQSYDSGYTGSRVFGTGTKVTVL
notes: scFv clone
B5: 99-C11 (scFv, V domains shown)
VH: QVQLVQSGGGVVQPGRSLRLSCAASGFTFSSYGMHWVRQAPGKGLEWVAFIRYDGSNKYYADSVKGRFTISRDNSKNTLYLQMKSLRAEDTAVYYCKTHGSHDNWGQGTMVTVSS
VL: SYVLTQPPSVSGTPGQRVTISCSGGRSNIGSNTVKWYQQLPGTAPKLLIYGNDQRPSGVPDRFSGSKSGTSASLAITGVQAEDEADYYCQSYDSGFTGSRVFGTGTKVTVL
notes: scFv clone
B6: B8 (scFv, V domains shown)
VH: QVQLVQSGGGVVQPGRSLRLSCAASGFTFSSYGMHWVRQAPGKGLEWVAFIRYDGSNKYYADSVKGRFTISRDNSKNTLYLQMKSLRAEDTAVYYCKTHGSHDNWGQGTMVTVSS
VL: SYVLTQPPSVSGTPGQRVTISCSGGRSNIGSNTVKWYQQLPGTAPKLLIYGNDQRPSGVPDRFSGSKSGTSASLAITGVQAEDEADYYCQSYDRGHTAHLYFGTGTKVTVL
notes: scFv
B7: C7 (scFv, V domains shown)
VH: QVQLVQSGGGVVQPGRSLRLSCAASGFTFSSYGMHWVRQAPGKGLEWVAFIRYDGSNKYYADSVKGRFTISRDNSKNTLYLQMKSLRAEDTAVYYCKTHGSHDNWGQGTMVTVSS
VL: SYVLTQPPSVSGTPGQRVTISCSGGRSNIGSNTVKWYQQLPGTAPKLLIYGNDQRPSGVPDRFSGSKSGTSASLAITGVQAEDEADYYCQSYDRGIPTSYLFGTGTKVTVL
notes: scFv
B8: B9 (scFv, V domains shown)
VH: QVQLVQSGGGVVQPGRSLRLSCAASGFTFSSYGMHWVRQAPGKGLEWVAFIRYDGSNKYYADSVKGRFTISRDNSKNTLYLQMKSLRAEDTAVYYCKTHGSHDNWGQGTMVTVSS
VL: SYVLTQPPSVSGTPGQRVTISCSGGRSNIGSNTVKWYQQLPGTAPKLLIYGNDQRPSGVPDRFSGSKSGTSASLAITGVQAEDEADYYCQSYDRGRAAHPQFGTGTKVTVL
notes: scFv
B9: M2 B4 (scFv, V domains shown)
VH: QVQLVQSGGGVVQPGRSLRLSCAASGFTFSSYGMHWVRQAPGKGLEWVAFIRYDGSNKYYADSVKGRFTISRDNSKNTLYLQMKSLRAEDTAVYYCKTHGSHDNWGQGTMVTVSS
VL: SYVLTQPPSVSGTPGQRVTISCSGGRSNIGSNTVKWYQQLPGTAPKLLIYGNDQRPSGVPDRFSGSKSGTSASLAITGVQAEDEADYYCQSYDIGLTGSRVFGTGTKVTVL
notes: scFv
B10: C6 (scFv, V domains shown)
VH: QVQLVQSGGGVVQPGRSLRLSCAASGFTFSSYGMHWVRQAPGKGLEWVAFIRYDGSNKYYADSVKGRFTISRDNSKNTLYLQMKSLRAEDTAVYYCKTHGSHDNWGQGTMVTVSS
VL: SYVLTQPPSVSGTPGQRVTISCSGGRSNIGSNTVKWYQQLPGTAPKLLIYGNDQRPSGVPDRFSGSKSGTSASLAITGVQAEDEADYYCQSYDRGQTPSITFGTGTKVTVL
notes: scFv
B11: B10 (scFv, V domains shown)
VH: QVQLVQSGGGVVQPGRSLRLSCAASGFTFSSYGMHWVRQAPGKGLEWVAFIRYDGSNKYYADSVKGRFTISRDNSKNTLYLQMKSLRAEDTAVYYCKTHGSHDNWGQGTMVTVSS
VL: SYVLTQPPSVSGTPGQRVTISCSGGRSNIGSNTVKWYQQLPGTAPKLLIYGNDQRPSGVPDRFSGSKSGTSASLAITGVQAEDEADYYCQSYDRGLSDSPLFGTGTKVTVL
notes: scFv
B12: B11 (scFv, V domains shown)
VH: QVQLVQSGGGVVQPGRSLRLSCAASGFTFSSYGMHWVRQAPGKGLEWVAFIRYDGSNKYYADSVKGRFTISRDNSKNTLYLQMKSLRAEDTAVYYCKTHGSHDNWGQGTMVTVSS
VL: SYVLTQPPSVSGTPGQRVTISCSGGRSNIGSNTVKWYQQLPGTAPKLLIYGNDQRPSGVPDRFSGSKSGTSASLAITGVQAEDEADYYCQSYDRGITPGLAFGTGTKVTVL
notes: scFv
B13: M2 A4 (scFv, V domains shown)
VH: QVQLVQSGGGVVQPGRSLRLSCAASGFTFSSYGMHWVRQAPGKGLEWVAFIRYDGSNKYYADSVKGRFTISRDNSKNTLYLQMKSLRAEDTAVYYCKTHGSHDNWGQGTMVTVSS
VL: SYVLTQPPSVSGTPGQRVTISCSGGRSNIGSNTVKWYQQLPGTAPKLLIYGNDQRPSGVPDRFSGSKSGTSASLAITGVQAEDEADYYCQSYDSGFPGSRVFGTGTKVTVL
notes: scFv
B14: C12 (scFv, V domains shown)
VH: QVQLVQSGGGVVQPGRSLRLSCAASGFTFSSYGMHWVRQAPGKGLEWVAFIRYDGSNKYYADSVKGRFTISRDNSKNTLYLQMKSLRAEDTAVYYCKTHGSHDNWGQGTMVTVSS
VL: SYVLTQPPSVSGTPGQRVTISCSGGRSNIGSNTVKWYQQLPGTAPKLLIYGNDQRPSGVPDRFSGSKSGTSASLAITGVQAEDEADYYCQSYDRGLRVQAPFGTGTKVTVL
notes: scFv
B15: C3 (scFv, V domains shown)
VH: QVQLVQSGGGVVQPGRSLRLSCAASGFTFSSYGMHWVRQAPGKGLEWVAFIRYDGSNKYYADSVKGRFTISRDNSKNTLYLQMKSLRAEDTAVYYCKTHGSHDNWGQGTMVTVSS
VL: SYVLTQPPSVSGTPGQRVTISCSGGRSNIGSNTVKWYQQLPGTAPKLLIYGNDQRPSGVPDRFSGSKSGTSASLAITGVQAEDEADYYCQSYDSGVDPGPYFGTGTKVTVL
notes: scFv
B16: C5 (scFv, V domains shown)
VH: QVQLVQSGGGVVQPGRSLRLSCAASGFTFSSYGMHWVRQAPGKGLEWVAFIRYDGSNKYYADSVKGRFTISRDNSKNTLYLQMKSLRAEDTAVYYCKTHGSHDNWGQGTMVTVSS
VL: SYVLTQPPSVSGTPGQRVTISCSGGRSNIGSNTVKWYQQLPGTAPKLLIYGNDQRPSGVPDRFSGSKSGTSASLAITGVQAEDEADYYCQSYDRGPHTQPTFGTGTKVTVL
notes: scFv
B17: M2 C3 (scFv, V domains shown)
VH: QVQLVQSGGGVVQPGRSLRLSCAASGFTFSSYGMHWVRQAPGKGLEWVAFIRYDGSNKYYADSVKGRFTISRDNSKNTLYLQMKSLRAEDTAVYYCKTHGSHDNWGQGTMVTVSS
VL: SYVLTQPPSVSGTPGQRVTISCSGGRSNIGSNTVKWYQQLPGTAPKLLIYGNDQRPSGVPDRFSGSKSGTSASLAITGVQAEDEADYYCQSYDTGLTGSRVFGTGTKVTVL
notes: scFv
B18: C8 (scFv, V domains shown)
VH: QVQLVQSGGGVVQPGRSLRLSCAASGFTFSSYGMHWVRQAPGKGLEWVAFIRYDGSNKYYADSVKGRFTISRDNSKNTLYLQMKSLRAEDTAVYYCKTHGSHDNWGQGTMVTVSS
VL: SYVLTQPPSVSGTPGQRVTISCSGGRSNIGSNTVKWYQQLPGTAPKLLIYGNDQRPSGVPDRFSGSKSGTSASLAITGVQAEDEADYYCQSYDSGTSNLLPFGTGTKVTVL
notes: scFv
B19: C9 (scFv, V domains shown)
VH: QVQLVQSGGGVVQPGRSLRLSCAASGFTFSSYGMHWVRQAPGKGLEWVAFIRYDGSNKYYADSVKGRFTISRDNSKNTLYLQMKSLRAEDTAVYYCKTHGSHDNWGQGTMVTVSS
VL: SYVLTQPPSVSGTPGQRVTISCSGGRSNIGSNTVKWYQQLPGTAPKLLIYGNDQRPSGVPDRFSGSKSGTSASLAITGVQAEDEADYYCQSYDRGPTHLPHFGTGTKVTVL
notes: scFv

The first test deals with T1, recombinant human IL-12 (rhIL-12). Put plainly: BIAcore SPR, IL-12 on chip. (SPR reads the build-up and loss of mass on a sensor chip optically.)
As for B1, the koff (in general, a measure of how fast the partners let go of each other) came out at 0.0048 s⁻¹. Consider B2, for which the koff came out at 0.0054 s⁻¹. On to B3, for which the koff was 0.0054 s⁻¹. B4: the koff amounted to 0.0054 s⁻¹. Same read-out and setting: next, B5: 0.0057 s⁻¹.

The next test concerns the target T2, human IL-12. Kind of test: SPR (BIAcore), IL-12 chip. From the text: The system utilizes the optical properties of SPR to detect alterations in protein concentrations within a dextran biosensor matrix. Proteins are covalently bound to the dextran matrix at known concentrations. […] To determine the off rate (koff), on rate (kₒₙ), association rate (Ka) and dissociation rate (Kd) constants, BIAcore kinetic evaluation software (version 2.1) was used.
As to B6, the koff came out at 0.0024 s⁻¹.

Consider B7, for which the koff is 0.00583 s⁻¹. On the same count and under the same terms, the same measure for B8: 0.00866 s⁻¹; for B9: 0.0442 s⁻¹; for B10: 0.00242 s⁻¹. The molecule B11 came in with a koff of 0.00604 s⁻¹.

B12: the koff was found to be 0.00295 s⁻¹.

For B13, the koff came to 0.00849 s⁻¹.

The molecule B14 gave a koff of 0.00585 s⁻¹.

B15 showed a koff of 0.00334 s⁻¹.

Take B16: the koff came out at 0.00391 s⁻¹. Regarding B17, the koff turned out to be 0.0462 s⁻¹. B18 yielded a koff of 0.00536 s⁻¹. For B19, the koff is 0.00397 s⁻¹.
